Experimental findings from patent US6001823A, “Treatment or prophylaxis of diseases caused by pilus-forming bacteria” (priority 1995, dated 1999) are described below.

Experiment [1] concerns the target T1, PapD-PapG complex (Escherichia coli, UniProt P15319).
T1 construct: made in house
T1 sequence (P15319 22-239): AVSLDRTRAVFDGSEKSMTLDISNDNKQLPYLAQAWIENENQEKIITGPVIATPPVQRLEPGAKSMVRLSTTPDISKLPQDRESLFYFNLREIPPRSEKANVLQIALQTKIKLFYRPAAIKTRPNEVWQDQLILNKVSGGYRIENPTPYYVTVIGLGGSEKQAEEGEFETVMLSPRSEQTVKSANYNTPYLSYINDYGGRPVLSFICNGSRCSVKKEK
The experiment is described as follows: Reconstitution assay: restoration of PapD-PapG complex from reduced, denatured PapG. The note with it: PapD incubated with increasing amounts of peptide. It is filed as biochemical, E. coli. How it is done:
B: PapD incubated with the G1'-19'WT, G1'-16'WT, K1'-19'WT, and G2'-21'amide was added to reduced, denatured PapD-PapG and the amount of PapD-PapG complex restored in each sample was quantitated as described in example 2. The % inhibition represents the amount of the PapD-PapG complex restored with peptide-treated PapD compared to the amount of PapD-PapG complex restored with untreated PapD. The graph represent the average of 4 experiments. PapD and PapD-PapG complex were prepared as described in F. Lindberg et al, J. Bacteriol. 171, 6052 (1989) and S. J. Hultgren et al., Proc. Natl. Acad. Sci. U.S.A. 86, 4357 (1989).
FIG. 7: Ability of PapD Arg-8, Lys-112 and Thr-7 mutants to bind PapG and restore the PapD-PapG complex in vitro. 0.4 μg of PapD-PapG complex was reduced and denatured as described in FIG. 2B. The denatured PapD-PapG complex was then diluted with 0-630 ng purified wild type (WT) or mutant PapD. The amount of PapD-PapG restored in the samples was determined as in FIG. 2B and was graphed as a percentage of the greatest amount of PapD-PapG restored. The values graphed represent the average of 3 experiments. Wild type and mutant PapD and the PapD-PapG complex were purified as described in F. Lindberg et al, J. Bacteriol. 171, 6052 (1989) and S. J. Hultgren et al., Proc. Natl. Acad. Sci. U.S.A. 86, 4357 (1989).
As described in Kuehn et al., Proc. Natl. Acad. Sci. U.S.A. 88, 10586 (1991), native PapD is able to bind to reduced, denatured PapG and restore the PapD-PapG complex in vitro. This reconstitution assay was used to determine the ability of the peptides to inhibit PapD activity in vitro.
The PapD-peptide solution was then added to the reduced, denatured PapD-PapG, incubated at 25° C. for 10 min, and applied to an IEF 3-9 gel (Pharmacia). The amount of PapD-PapG restored in each sample was quantitated by densitometry of the silver stained IEF band corresponding to the pI of the DG complex.

Experiment [2] deals with T2, PapD (Escherichia coli, UniProt P15319).
T2 sequence (P15319 22-239): T1 sequence (P15319 22-239)
As to the kind of experiment: Soluble inhibition ELISA: peptide inhibition of PapD binding to G1'-19'WT-coated wells. On the set-up: made in house; species or system E. coli. The conditions noted are these: peptide in solution. How it is done:
In addition, the ability of water-soluble peptides to inhibit PapD binding to G1'-19'WT-coated wells in a soluble inhibition ELISA were tested, since peptide conformations may have been affected by binding to the plastic microtiter plates:
Microtiter wells were coated overnight at 4° C. with 50 μl of 2,5 pmol/50 μl of the G1'-19'WT peptide. The wells were washed with PBS and blocked with 3% bovine serum albumin (BSA). A 25-fold molar excess of each test peptide was pre-incubated with 100 pmoles PapD for 30 min. and the PapD-peptide solution was then added to the coated wells and incubated at 25° C. for 45 min in the presence of 3% BSA/PBS. The subsequent primary antibody, secondary antibody and developing steps are described above. The ability of the peptides to inhibit binding of PapD to the G1'-19'WT peptide was calculated by dividing the amount of PapD binding in the presence of peptide with the amount of PapD binding in the presence of water. 0% inhibition includes values where binding was greater than that of PapD pre-incubated with H2 O.
The % inhibition represents the percentage of PapD binding in the presence of the peptide compared to in the presence of water and are the average of two experiments performed duplicate: […]
Background: In an ELISA, binding on a coated surface is turned into a signal by an enzyme label.

Experiment [3] addresses T2, PapD. The experiment is described as follows: ELISA: peptide inhibition of PapD binding to MBP-G1'-140' fusion protein. The conditions noted are these: PapD preincubated with peptide at 1:25 ratio. On the set-up: species or system E. coli. On the procedure: The ability of the peptides to inhibit the binding of PapD to the MBP-G1'-140' fusion protein was then investigated using the following ELISA test:
Stock solutions of MBP-G1'-140' proteins in PBS were diluted to 0.1 μM with PBS. The wells of microtiter plates were coated with 50 μl of the protein solutions overnight at 4° C. The wells were washed with PBS, and blocked with 200 μl of 3% bovine serum albumin (BSA) in PBS for 2 hours at 25° C. The plates were washed vigorously three times with PBS and incubated with 50 μl of 1-5 μM PapD proteins in 3% BSA-PBS for 45 minutes at 25° C. The PapD was preincubated with each of the peptides at a 1:25 ratio for 30 min before being added to the wells. After three washings with PBS, the wells were incubated with a 1:500 dilution of rabbit anti-PapD antiserum in 3% BSA-PBS for 45 minutes at 25° C. After three washings with PBS, the wells were incubated with a 1:1000 dilution of goat antiserum to rabbit IgG coupled to alkaline phosphatase in 3% BSA-PBS for 45 minutes at 25° C. After three washings with PBS and three washings with developing buffer (10 mM diethanolamine, 0.5 mM MgCl2), 50 μl filtered 1 mg/ml p-nitrophenyl phosphate in developing buffer was added, the reaction was incubated for 1 hour or longer if necessary in the dark at 25° C., and the absorbance at 405 nm was read.

Consider “NH2--KPGELSGSMTMVLSFP--COOH (H-KPGELSGSMTMVLSFP-OH) [G1'-16'WT]”, for which the “inhibition of restoration of the PapD-PapG complex by PapD” value in experiment [1] is “inhibit restoration”. For the same substance, in experiment [2], the “inhibition of PapD binding to immobilized G1'-19'WT by soluble peptide” value is on record as “inhibited binding”. For the same substance, the “inhibition of binding of PapD to MBP-G1'-140' fusion protein” value in experiment [3] was “significantly more potent”.
